Among the data in patent US20210214414A1 (Pfizer, published 2021) are IC50 values, retold here.

One experiment has as its target T1, Human SLIT1-N (human, UniProt O75093 34-1127, limits assumed).
T1 construct: domain: SLIT1-N; d2-labelled in the HTRF assay
T1 sequence (looked up): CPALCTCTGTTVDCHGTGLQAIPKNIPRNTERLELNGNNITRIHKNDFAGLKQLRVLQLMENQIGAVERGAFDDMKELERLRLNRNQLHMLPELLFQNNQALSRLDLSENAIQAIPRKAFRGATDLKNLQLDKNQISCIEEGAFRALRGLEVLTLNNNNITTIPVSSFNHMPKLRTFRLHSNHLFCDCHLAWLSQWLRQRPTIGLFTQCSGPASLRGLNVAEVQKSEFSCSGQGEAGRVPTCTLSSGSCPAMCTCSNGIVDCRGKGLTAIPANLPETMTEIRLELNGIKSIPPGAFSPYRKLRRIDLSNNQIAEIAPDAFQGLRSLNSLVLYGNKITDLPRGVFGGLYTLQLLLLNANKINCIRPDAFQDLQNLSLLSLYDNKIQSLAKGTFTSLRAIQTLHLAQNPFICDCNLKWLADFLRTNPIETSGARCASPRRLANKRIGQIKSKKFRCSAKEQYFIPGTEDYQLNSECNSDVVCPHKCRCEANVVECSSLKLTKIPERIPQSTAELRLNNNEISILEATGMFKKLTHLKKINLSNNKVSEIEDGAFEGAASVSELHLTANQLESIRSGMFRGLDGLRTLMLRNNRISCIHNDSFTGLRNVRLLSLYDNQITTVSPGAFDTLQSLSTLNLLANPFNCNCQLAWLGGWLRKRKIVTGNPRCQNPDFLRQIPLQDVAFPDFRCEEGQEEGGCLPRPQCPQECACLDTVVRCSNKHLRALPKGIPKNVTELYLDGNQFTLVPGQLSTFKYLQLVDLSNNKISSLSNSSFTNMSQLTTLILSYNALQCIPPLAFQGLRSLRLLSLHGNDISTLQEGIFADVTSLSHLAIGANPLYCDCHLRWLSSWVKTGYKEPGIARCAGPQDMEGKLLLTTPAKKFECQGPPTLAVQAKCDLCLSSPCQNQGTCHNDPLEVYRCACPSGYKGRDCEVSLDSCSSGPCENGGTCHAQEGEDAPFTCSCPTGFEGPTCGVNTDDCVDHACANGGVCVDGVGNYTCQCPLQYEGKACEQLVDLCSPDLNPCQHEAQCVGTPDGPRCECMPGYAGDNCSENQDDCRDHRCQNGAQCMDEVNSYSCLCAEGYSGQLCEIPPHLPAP
The experiment is described as follows: HTRF competition: d2-labelled human SLIT1-N binding to human ROBO2 on HEK293 cells; geometric mean, n=3. The protocol:
(§1) After incubation, fluorescence at 665 nm and 620 nm was measured on an Envision multilabel plate reader. The HTRF Ratio was calculated as follows: fluorescence at 665 nm/fluorescence at 620 nm×10,000. […] The IC₅₀ for each SLITx-N was determined using an 11-point, 4-fold dilution series with a top concentration of 4000 nM.

Another experiment addresses T2, Mouse SLIT3-N (mouse, UniProt Q9WVB4 34-1119, limits assumed).
T2 construct: domain: SLIT3-N; d2-labelled in the HTRF assay
T2 sequence (looked up): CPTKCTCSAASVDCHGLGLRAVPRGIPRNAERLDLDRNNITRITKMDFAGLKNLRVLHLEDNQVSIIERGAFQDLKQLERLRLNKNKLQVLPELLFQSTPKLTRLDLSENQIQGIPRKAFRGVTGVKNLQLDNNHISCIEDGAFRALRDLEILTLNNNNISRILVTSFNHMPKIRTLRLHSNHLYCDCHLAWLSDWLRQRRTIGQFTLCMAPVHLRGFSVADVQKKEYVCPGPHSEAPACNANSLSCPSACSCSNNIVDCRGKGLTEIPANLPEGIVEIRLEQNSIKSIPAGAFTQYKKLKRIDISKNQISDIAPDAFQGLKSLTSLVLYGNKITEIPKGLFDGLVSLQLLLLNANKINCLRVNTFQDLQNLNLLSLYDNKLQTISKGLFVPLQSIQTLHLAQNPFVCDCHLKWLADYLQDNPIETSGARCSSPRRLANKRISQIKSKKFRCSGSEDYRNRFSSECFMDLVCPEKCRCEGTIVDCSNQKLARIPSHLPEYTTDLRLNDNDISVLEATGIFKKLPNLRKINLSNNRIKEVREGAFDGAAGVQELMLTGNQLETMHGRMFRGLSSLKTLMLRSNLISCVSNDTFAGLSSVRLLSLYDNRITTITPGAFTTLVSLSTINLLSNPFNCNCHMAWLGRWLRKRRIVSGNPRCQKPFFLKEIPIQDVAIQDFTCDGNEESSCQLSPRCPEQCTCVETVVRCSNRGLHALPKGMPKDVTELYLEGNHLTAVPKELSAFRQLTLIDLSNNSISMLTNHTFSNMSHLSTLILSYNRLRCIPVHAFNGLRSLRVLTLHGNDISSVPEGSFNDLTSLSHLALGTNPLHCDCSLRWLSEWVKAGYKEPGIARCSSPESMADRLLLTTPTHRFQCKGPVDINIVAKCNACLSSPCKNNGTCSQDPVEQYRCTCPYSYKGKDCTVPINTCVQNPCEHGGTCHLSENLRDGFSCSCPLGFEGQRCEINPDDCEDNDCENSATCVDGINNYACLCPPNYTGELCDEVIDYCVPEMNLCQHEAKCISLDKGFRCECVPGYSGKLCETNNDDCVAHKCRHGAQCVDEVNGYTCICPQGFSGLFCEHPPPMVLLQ
Nature of the experiment: HTRF competition: d2-labelled mouse SLIT3-N binding to human ROBO2 on HEK293 cells; geometric mean, n=3. The protocol:
as §1

B1: ROBO2-Fc 2.2 (Fc fusion)
chain: SRLRQEDFPPRIVEHPSDVIVSKGEPTTLNCKAEGRPTPTIEWYKDGERVETDKDDPRSHRMLLPSGSLFFLRIVHGRRSKPDEGSYVCVARNYLGEAVSRNASLEVALLRDDFRQNPTDVVVAAGEPAILECQPPRGHPEPTIYWKKDKVRIDDKEERISIRGGKLMISNTRKSDAGMYTCVGTNMVGERDSDPAELTVFERGGSGGSEPKSSDKTHTCPPCPAPEAAGAPSVFLFPPKPKDTLMISRTPEVTCVVVDVSHEDPEVKFNWYVDGVEVHNAKTKPREEQYNSTYRVVSVLTVLHQDWLNGKEYKCKVSNKALPAPIEKTISKAKGQPREPQVYTLPPSREEMTKNQVSLTCLVKGFYPSDIAVEWESNGQPENNYKTTPPVLDSDGSFFLYSKLTVDKSRWQQGNVFSCSVMHEALHNHYTQKSLSLSPG
notes: Labelled with Alexa Fluor 647 in the flow cytometry assay; also called ROBO-Fc 2.2; ROBO2-Fc 2.2-AF647
The term IC50 denotes the concentration that gives 50% inhibition. A higher IC50 goes with lower potency. For the molecule B1, the IC50 worked out at 5.9 nM in the experiment with Human SLIT1-N and 4.3 nM with Mouse SLIT3-N.
